Patent US20220323495A1 (NATIONAL RESEARCH COUNCIL OF CANADA, published 2022)
No end group written: not given here.

Legend:
[1] = target: T1, wild-type human EGFR expressed on cells (U87MG overexpressing wild-type human EGFR) (human, UniProt P00533 25-645); experiment: flow cytometry, hybridoma supernatant on U87MG-EGFR WT cells
T1 construct: Full length wt EGFR on cells; also called U87MG-EGFR WT; U87 WT
Description: Prior to analysis, cells were plated such that they were not more than 80% confluent on the day of analysis. Unless otherwise stated, all media are kept are 4° C. and all incubations are performed on wet ice.

[2] = target: T2, recombinant human wild-type EGFR protein, native (human, UniProt P00533 25-645); experiment: ELISA on coated native recombinant antigen; Exp 1, mAb supernatant
T2 construct: Recombinant protein used as ELISA coat; also called EGFRwt; wt EGFR
Description: (§1) Pre- and post-immune sera titers of animals were assessed by ELISA on recombinant EGFRvIII protein. Unless otherwise stated, all incubations were performed at room temperature. Briefly, half-area 96-well plates (Costar #3690) were coated with 25 μl per well of immunogen at 5 μg/ml in PBS and incubated overnight at 4° C. Microplates were washed three times in PBS and blocked for 30 min with PBS containing 1% bovine serum albumin (BSA, Sigma Cat#A7030). Blocking buffer was removed and 25 μl of serial dilutions of sera samples were added. After a 2-h incubation, microplates were washed 4 times with PBS-TWEEN™ 20 0.05% and 25 μl of a 1/5,000 dilution of alkaline phosphatase conjugated F(ab′)′₂ goat anti-mouse IgG (H+L, #115-056-062, Jackson Immunoresearch, Cedarlane, Burlington, ON) in blocking buffer was added. After a 1-h incubation, microplates were washed 4 times and 25 μl of p-nitrophenyl phosphate (pNPP) substrate (Sigma-Aldrich Canada Co., Oakville, ON) at 1 mg/ml in carbonate buffer at pH 9.6 was added and further incubated for 30 min. Absorbance was read at 405 nm using a SpectraMax 340 PC plate reader (Molecular Devices, Sunnyvale, Calif.).
(§2) To evaluate if monoclonal antibodies bind to a conformational epitope, an ELISA analysis on native and denatured recombinant human wild-type EGFR and EGFRvIII proteins were performed. […] Antigens at 1-2 mg/ml were denatured by incubation at 95° C. for 5 min in PBS containing DTT at 40 mM final concentration. They were then incubated on ice for 5 min and diluted at their final coating concentration for ELISA purpose.
(§3) mAbs were purified using HiTrap ProteinG HP 1 mL columns GE Healthcare cat no. 17-0404-01 and desalted using Zeba-spin desalting columns 5 mL (Pierce) pre-equilibrated in PBS and filter sterilized through […] membrane (Millipore). The final concentration of the antibody solutions was determined using a Nano-drop 2000 (ThermoScientific), using IgG as sample type. ELISA was performed as described above (serum titer determination) using 25 μl of mAb supernatant (Exp 1) or purified mAb at 1 μg/ml (Exp 2).

[3] = target: T3, recombinant human EGFRvIII protein, native (human, UniProt P00533 298-623); experiment: as above
T3 construct: Recombinant extracellular domain used as immunogen and ELISA coat; also called EGFRvIII Native
Description: as §1, §2, §3

[4] = target: T4, recombinant human EGFRvIII protein, denatured (human, UniProt P00533 298-623); experiment: ELISA on coated denatured recombinant antigen; Exp 1, mAb supernatant
T4 construct: Same protein as m9 after denaturation (95 °C for 5 min in PBS with 40 mM DTT); also called EGFRvIII Denatured
Description: as §1, §2, §3

[5] = target: T2, recombinant human wild-type EGFR …; experiment: ELISA on coated native recombinant antigen; Exp 2, purified mAb 1 µg/ml
Description: as §1, §2, §3

[6] = target: T3, recombinant human EGFRvIII protein, …; experiment: as above
Description: as §1, §2, §3

[7] = target: T5, human EGFRvIII amino acid residues 1 to 18, yeast-displayed (human, not fully specified); experiment: yeast display; smallest EGFRvIII fragment the antibody was able to bind
T5 construct: also called aa 1-18
T5 peptide: LEEKKGNYVVTDHGSCVR
Text: Assessment of the binding of anti-EGFRvIII monoclonal antibodies to the fusion proteins expressed on yeast cell surface was done by flow cytometry analysis. Yeast cells were labeled with both the anti-EGFRvIII monoclonal antibody and chicken anti-Myc antibody the latter being used to monitor the level of expression of the fusion protein. Following a wash step, binding of the primary antibodies is probed by a two-color indirect fluorescence labeling using a specific mouse and chicken secondary antibodies for each of the primary antibody respectively.

[8] = target: T4, recombinant human EGFRvIII protein, …; experiment: ELISA on coated denatured recombinant antigen; Exp 2, purified mAb 1 µg/ml
Description: as §1, §2, §3

[9] = target: T6, recombinant human wild-type EGFR protein, denatured (human, UniProt P00533 25-645); experiment: as above
T6 construct: Same protein as m11 after denaturation (95 °C for 5 min in PBS with 40 mM DTT); also called EGFRwt Denatured
Description: as §1, §2, §3

B1: F271-1D2 anti-EGFRvIII monoclonal antibody (antibody, V domains shown)
VH: DVQLQESGPDLVKPSQSLSLTCTVTGYSITSGYSWHWIRQFPGNKLEWMGYIHYSGSTNYNPSLKSRISITRDTSKNQFFLQLSSVTTEDTATYYCTRSPYFDVWGTGTTVTVSS
VL: DVVMTQTPLSLPVSLGDQASISCRSSQSLVHSDGNTYLHWYLQKPGQSPKLLIYKVSNRFSGVPDRFSGSGSGTDFTLKISRVEAEDLGVYFCSQSTHVPWTFGGGTKLEIK
notes: Mouse hybridoma IgG, tested as supernatant or Protein G purified mAb
- binding result [1]: no binding
- ELISA absorbance (405 nm) [2]: 0.002 A405
- ELISA absorbance (405 nm) [3]: 1.49 A405
- ELISA absorbance (405 nm) [4]: 2.55 A405
- ELISA absorbance (405 nm) [5]: 0.004 A405
- ELISA absorbance (405 nm) [6]: 0.935 A405
- binding result [7]: binds
- ELISA absorbance (405 nm) [8]: 1.05 A405
- ELISA absorbance (405 nm) [9]: 0 A405
